{"source": "paper PMC12004354", "key": {"[1]": {"molecular_target": "T1, human recombinant C-reactive protein (human), P02741", "T1 chain": "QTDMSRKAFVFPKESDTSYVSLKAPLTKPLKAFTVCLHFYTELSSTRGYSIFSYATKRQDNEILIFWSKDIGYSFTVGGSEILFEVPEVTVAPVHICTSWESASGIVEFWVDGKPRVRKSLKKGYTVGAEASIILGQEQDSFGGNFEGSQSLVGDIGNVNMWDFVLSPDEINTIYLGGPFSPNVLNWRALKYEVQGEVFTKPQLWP", "experiment": "native MS; direct infusion native MS with SID; 50 mM ammonium acetate, for charge reduction 20% (v/v) 50 mM TEAA added", "settings": "remark: other sources report otherwise"}, "[2]": {"molecular_target": "T1, human recombinant C-reactive protein …", "experiment": "native MS; native capillary zone electrophoresis-MS (nCZE-MS) with surface-induced dissociation (SID); LPA-coated capillary, 20 kV; BGE 50 mM ammonium acetate pH around 6.8 (normal charge) or 40 mM AmAc with 10 mM TEAA (charge-reducing); 0.5 uM of each complex; precursors 15+/11+ SA and 23+/17+ CRP isolated", "settings": "remark: other sources report otherwise"}}, "data": [{"binder": "human recombinant C-reactive protein, P02741 19-224 (natural protein) QTDMSRKAFVFPKESDTSYVSLKAPLTKPLKAFTVCLHFYTELSSTRGYSIFSYATKRQDNEILIFWSKDIGYSFTVGGSEILFEVPEVTVAPVHICTSWESASGIVEFWVDGKPRVRKSLKKGYTVGAEASIILGQEQDSFGGNFEGSQSLVGDIGNVNMWDFVLSPDEINTIYLGGPFSPNVLNWRALKYEVQGEVFTKPQLWP", "values": [{"measurement": "stoichiometry N", "setting": "[1]", "value": 5}, {"measurement": "stoichiometry N", "setting": "[2]", "value": 5}]}]}
